Laboratory results as given in patent US11466286B2, “Methods and compositions for conferring and/or enhancing herbicide tolerance using protoporphyrinogen oxidase or variant thereof” (FarmHannong Co., Ltd., priority 2016, dated 2022).
Residue numbers refer to the chain shown, from its start. Names may count otherwise.

B1: CyPPO10 S60T + I340T + F360I: CyPPO10 (SEQ ID NO: 2) PPO variant (protein)
chain: MIEVDVAIVGGGLSGLSVAWRLQRSAPHYSGVLLEASDRLGGNITTQAAEGFVWELGPNTFAPTPALLQLIAEVGLHSELIRGDRHLPRYIYWRGELYPLEPTRPLALATSNLLSPWGKVRAALGALGFVPPYLGSGDESVDSFFRRHLGQEVAERLVAPFVSGVYAGDPQQLSAAAAFRRIAQLEKLGGSLIAGALRLRRQQPPQPKPPAQVQMRPGELGSFREGLAALPRAIAQQLKAPLHLQTPVEAITPEPKGGYLLRSGEQTWHARSVVLATPAYQTAELVAPFQPAIARALATIPYPTVACVVLAYPAGLGRSVRPGFGVLVPRGQGIRTLGTTWSSCLFPQRTPAGWQVFTSIIGGATDPDLASLREEAIVEQVQQDLTRLLDLPAAKARLLGMKVWRRAIPQYIVGYPQQWQQVTHALTQTPGLFLCSNYAEGVALGDRVEHGNRTAAAVAAYLAGGQS
modifications: Synthetic CyPPO10
B2: CyPPO10 V165C + F360M: CyPPO10 (SEQ ID NO: 2) PPO variant (protein)
chain: B1 chain with T60S, V165C, T340I, I360M
modifications: Synthetic CyPPO10
B3: CyPPO10 R89V + F360I: CyPPO10 (SEQ ID NO: 2) PPO variant (protein)
chain: B1 chain with T60S, R89V, T340I
modifications: Synthetic CyPPO10
B4: CyPPO10 F161A: CyPPO10 (SEQ ID NO: 2) PPO variant (protein)
chain: B1 chain with T60S, F161A, T340I, I360F
modifications: Synthetic CyPPO10
B5: CyPPO10 A167I + F360M: CyPPO10 (SEQ ID NO: 2) PPO variant (protein)
chain: B1 chain with T60S, A167I, T340I, I360M
modifications: Synthetic CyPPO10
B6: CyPPO10 V165C + A167C + F360M: CyPPO10 (SEQ ID NO: 2) PPO variant (protein)
chain: B1 chain with T60S, V165C, A167C, T340I, I360M
modifications: Synthetic CyPPO10
B7: CyPPO10 V165C: CyPPO10 (SEQ ID NO: 2) PPO variant (protein)
chain: B1 chain with T60S, V165C, T340I, I360F
modifications: Synthetic CyPPO10
B8: CyPPO10 V165C + A167I + F360M: CyPPO10 (SEQ ID NO: 2) PPO variant (protein)
chain: B1 chain with T60S, V165C, A167I, T340I, I360M
modifications: Synthetic CyPPO10
B9: CyPPO10 Q184G: CyPPO10 (SEQ ID NO: 2) PPO variant (protein)
chain: B1 chain with T60S, Q184G, T340I, I360F
modifications: Synthetic CyPPO10
B10: CyPPO10 V305L + F360M: CyPPO10 (SEQ ID NO: 2) PPO variant (protein)
chain: B1 chain with T60S, V305L, T340I, I360M
modifications: Synthetic CyPPO10
B11: CyPPO10 F324V: CyPPO10 (SEQ ID NO: 2) PPO variant (protein)
chain: B1 chain with T60S, F324V, T340I, I360F
modifications: Synthetic CyPPO10
B12: CyPPO10 R89A: CyPPO10 (SEQ ID NO: 2) PPO variant (protein)
chain: B1 chain with T60S, R89A, T340I, I360F
modifications: Synthetic CyPPO10
B13: CyPPO10 A167L: CyPPO10 (SEQ ID NO: 2) PPO variant (protein)
chain: B1 chain with T60S, A167L, T340I, I360F
modifications: Synthetic CyPPO10
B14: CyPPO10 R89L + F360I: CyPPO10 (SEQ ID NO: 2) PPO variant (protein)
chain: B1 chain with T60S, R89L, T340I
modifications: Synthetic CyPPO10
B15: CyPPO10 L327T: CyPPO10 (SEQ ID NO: 2) PPO variant (protein)
chain: B1 chain with T60S, L327T, T340I, I360F
modifications: Synthetic CyPPO10
B16: CyPPO10 F360T: CyPPO10 (SEQ ID NO: 2) PPO variant (protein)
chain: B1 chain with T60S, T340I, I360T
modifications: Synthetic CyPPO10
B17: CyPPO10 R89A + A167L + F360M: CyPPO10 (SEQ ID NO: 2) PPO variant (protein)
chain: B1 chain with T60S, R89A, A167L, T340I, I360M
modifications: Synthetic CyPPO10
B18: CyPPO10 I340T: CyPPO10 (SEQ ID NO: 2) PPO variant (protein)
chain: B1 chain with T60S, I360F
modifications: Synthetic CyPPO10
B19: CyPPO10 I408W + F360M: CyPPO10 (SEQ ID NO: 2) PPO variant (protein)
chain: B1 chain with T60S, T340I, I360M, I408W
modifications: Synthetic CyPPO10
B20: CyPPO10 I408R + F360M: CyPPO10 (SEQ ID NO: 2) PPO variant (protein)
chain: B1 chain with T60S, T340I, I360M, I408R
modifications: Synthetic CyPPO10
B21: CyPPO10 V165C + A167L + F360M: CyPPO10 (SEQ ID NO: 2) PPO variant (protein)
chain: B1 chain with T60S, V165C, A167L, T340I, I360M
modifications: Synthetic CyPPO10
B22: CyPPO13 F373L: CyPPO13 (SEQ ID NO: 4) PPO variant (protein)
chain: MNPATPEPLNAEVVVIGAGISGLTLAWRLQQGLSARGGSPQAVLLAEASSRVGGCISTQSKDGYRWEEGPNSFTPTPALLNLIAEVGLTDQLVLADAKLPRYIYWEGALLPVPLSPAAALGSRLLSVGGKLRALQGLLGFVPPPPGHEETVRQFFRRQLGSEVAERLVEPFTSGVYAGDPDQLSAVAAFPRVAGLEERYGSLFAGALQALRQRPQPSPAAIQPPPKRGQLGNLRQGLQQLPEALAQKLGDSLRLGWRALQLKRAGELYWVGFETPEGSRWVAARQVVLALPAYEAAALLQELNPPASQLLAEILYPPVAVVALAYPQEALPQPLRGFGHLIPRSQGLRTLGTIWASCLFPERAPQGYHSFLSLLGGATDAALARRRGIPPIPALSPEERAQIAHAELSQVLLTRRAEPVYLGERLWPRAIPQYTLGHRQRIAQVQAHLASQTPGIWVCANYLDGVALGDCVRRAEALAQQLLSQV
modifications: Synthetic CyPPO13
B23: CyPPO13 F373H: CyPPO13 (SEQ ID NO: 4) PPO variant (protein)
chain: B22 chain with L373H
modifications: Synthetic CyPPO13
B24: CyPPO13 F373V: CyPPO13 (SEQ ID NO: 4) PPO variant (protein)
chain: B22 chain with L373V
modifications: Synthetic CyPPO13
B25: CyPPO13 F373T: CyPPO13 (SEQ ID NO: 4) PPO variant (protein)
chain: B22 chain with L373T
modifications: Synthetic CyPPO13

system: CyPPO10; test: PPO enzyme activity and IC50 by herbicides, CyPPO10 wild type and variants (MBP-PPO fusion); format: biochemical, Thermosynechococcus elongatus BP-1; details: PPO enzyme activity of CyPPO10 protein, wild type = 100
Description: (§1) The enzyme activities of PPO protein and PPO protein variants were examined, and inhibition assay by PPO-inhibiting herbicides was conducted. It was confirmed that the PPO protein has low water-solubility, but in case of being expressed as a fusion protein with MBP (maltose binding protein) (MBP-PPO), the PPO protein is able to be stably expressed as water-soluble form. Therefore, the wild type and variant proteins which were expressed in the form of fusion protein with MBP were used in the present test (refer to FIG. 4).
(§2) In order to express wild type genes and mutant genes of CyPPO10 and CyPPO13 (refer to Example 1 and Example 4), those genes were introduced to pMAL-c2X vector (refer to FIG. 5) respectively, and then cloned to BL21 (DE3) E. coli (CodonPlus).
(§3) The enzyme activity of the purified wild type protein and variant proteins of CyPPO10 and CyPPO13 was measured by the following process.
(§4) At first, a substrate of PPO protein, Protoporphyrinogen IX was synthesized. This process was performed in the space where nitrogen gas is streamed. 6 mg of protoporphyrin IX was dissolved in 20% (v/v) EtOH 20 ml, and stirred under dark condition for 30 minutes. The obtained protoporphyrinogen IX solution was put into a 15 ml screw tube in an amount of 800 and flushed with nitrogen gas for 5 minutes. To this, 1 g of sodium amalgam was added and vigorous shaking was performed for 2 minutes. The lid was open to exhaust hydrogen gas in the tube. Thereafter, the lid was closed and incubated for 3 minutes. The […] was filtered using syringe and cellulose membrane filter. To 600 μl of the obtained […], 2M MOPS [3-(N-morpholino)propanesulfonic acid] was added in an amount of approximately 300 thereby adjusting pH to 8.0. To determine the enzyme activity of PPO protein, a reaction mixture was prepared with the following composition (based on 10 ml): 50 mM Tris-Cl (pH 8.0); 50 mM NaCl; 0.04% (v/v) Tween 20; 40 mM glucose (0.072 g); 5 units glucose oxidase (16.6 mg); and 10 units catalase (1 μl).
(§5) Two hundred microliters (200 μl) of reaction mixture containing a purified PPO protein were placed in 96 well plates, and preincubated for 30 min at room temperature to reduce the oxygen concentration by the reaction of glucose oxidase-catalase. The mineral oil was layered and then the reaction was initiated by adding the substrate, […], to a final concentration of 50 μM. The reaction proceeded at room temperature for 30 min and the fluorescence of protoporphyrin IX was measured using Microplate reader (Sense, Hidex) (excitation: 405 nm; emission: 633 nm). To calculate the PPO enzyme activity, protoporphyrinogen IX solution was kept open in the air to oxidize the solution (overnight). To this, 2.7N HCl was added, and the absorbance at 408 nm was measured. A standard curve was generated using standard protoporphyrin IX, and the PPO activity was measured by calibration of protoporphyrin IX using the standard curve of protoporphyrin IX.
(§6) The final concentration of each herbicide was as follows: […]

Row | Molecule | Activity (%)
1 | B1 | 5
2 | B2 | 93
3 | B3 | 57
4 | B4 | 92
5 | B5 | 85
6 | B6 | 91
7 | B7 | 99
8 | B8 | 75
9 | B9 | 97
10 | B10 | 82
11 | B11 | 59
12 | B12 | 83
13 | B13 | 95
14 | B14 | 51
15 | B15 | 84
16 | B16 | 85
17 | B17 | 7
18 | B18 | 19
19 | B19 | 5
20 | B20 | 5
21 | B21 | 83

system: CyPPO13; test: PPO enzyme activity and IC50 by herbicides, CyPPO13 wild type and variants (MBP-PPO fusion); format: biochemical, Synechococcus sp. JA-3-3Ab; details: PPO enzyme activity of CyPPO13 protein, wild type = 100
Description: as §1, §2, §3, §4, §5, §6

Row | Molecule | Activity (%)
22 | B22 | 82
23 | B23 | 26
24 | B24 | 83
25 | B25 | 81
